# No end group written: not given here. *: point of attachment. Biotin = O=C1N[C@H]2[C@H](CS[C@H]2CCCCC(=O)*)N1
# T1: CR17 of LRP (human, UniProt Q07954 2770-2817)
# T1 chain (looked up): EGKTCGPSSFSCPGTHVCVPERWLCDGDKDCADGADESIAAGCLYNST
# Assays:
# [1] = biological target: CR16-18 of LRP (P. pastoris) (human, UniProt Q07954 2731-2857); experiment: SPR
# CR17 of LRP = biological target: T1, CR17 of LRP
# Chain of CR16-18 of LRP (P. pastoris) (Q07954 2731-2857): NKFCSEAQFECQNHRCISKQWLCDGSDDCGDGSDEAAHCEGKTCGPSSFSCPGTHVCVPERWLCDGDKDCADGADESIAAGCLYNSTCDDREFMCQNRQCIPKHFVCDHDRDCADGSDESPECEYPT
Kd [1],Kd (CR17 of LRP),KD (Global) (CR17 of LRP),KD (Largest) (CR17 of LRP),KD (Sum) (CR17 of LRP),Binder
~200 nM,–,–,–,–,"Biotin-LRKLRKRLLRDADDLLRKLRKRLLRDADDL (peptide, UniProt P02649 159-173, looked up) [biotinylated ApoE(141-155)^2 peptide]"
–,> 5 mM,–,–,–,"TEELRVRLASH (peptide, UniProt P02649 148-158, looked up) [Ub-ApoE(130-140)]"
–,3.46 mM,3.84 ± 0.801 mM,2760 ± 361 µM,3.78 ± 0.375 mM,"TEELRVRLASHLRALRARLL (peptide, UniProt P02649 148-167, looked up) [Ub-ApoE(130-149)(K143/146A)]"
